Experimental data published in patent EP4818206A1.
pEC50: −log10 of the molar value.

What was measured:
[1] = target: cynomolgus CD84 (NCBI Accession No. XM_005541244.3), on HEK293T cells (cynomolgus); assay: flow cytometry on HEK293T-Cyno-CD84 cells
[2] = target: human CD84 (NCBI Accession No. NP_001171808.1), on cells (human) (UniProt Q9UIB8); assay: flow cytometry on HEK293T-hCD84 cells
UniProt Q9UIB8, sequence (Q9UIB8 22-345): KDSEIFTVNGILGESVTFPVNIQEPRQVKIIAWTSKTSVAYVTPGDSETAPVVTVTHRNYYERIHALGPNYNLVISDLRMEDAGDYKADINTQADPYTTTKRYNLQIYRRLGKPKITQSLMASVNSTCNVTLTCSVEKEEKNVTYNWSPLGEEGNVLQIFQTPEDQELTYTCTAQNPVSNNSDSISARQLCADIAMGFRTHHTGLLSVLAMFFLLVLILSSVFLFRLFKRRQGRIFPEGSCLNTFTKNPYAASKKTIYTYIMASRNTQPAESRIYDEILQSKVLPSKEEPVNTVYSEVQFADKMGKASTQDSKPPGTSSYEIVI

Substance: CD84.1.21 (Biolegend; Cat. No. 326002) (antibody)
- pEC50 [1]: 7.78
- MFI (max) [1]: 57700 MFI
- pEC50 [2]: 8.68
- MFI (max) [2]: 134000 MFI
